Laboratory results from the NTF2 design screens of Basanta et al. (2020).

Assay: protease stability score; higher = more stable; yeast display proteolysis, trypsin and chymotrypsin;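 note: relative to predicted unfolded state with 0 unfolded-like and 1 meaning tenfold more protease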

Sequence | protease stability score
SELEDATEFAIKVLLEVLRTGDWLEFEKMVDPNVRSSINGVELHGRRRLSHEILREWMELGIKHLDVHLKHKELQGDKLILIVELRLDVNGREIRRETELILLKVDGRWLLTEVRVK | 1.58
SELEDMLRHMFDLFWRAFRTGDWELLMRLADPHVRLEVRFNGRHIEHVGRESFVESVETLRHEWRIDHLRINDEKYQGDYVNLNTRMDVFFDGVKVRTDTRVHSVVVNGRLREFSIEFG | 0.495
SELEEAVRRWLELFFKLFWTGNEEILTDLFDPNVRLEVGDKVFIGREEVSRHLREFRERVKNLRMHVHDVKLINGVVHMDIEIDINGVRTKAHTDWIVIDGRHHSQIIKIN | 0.525
SELEEDMRYLLKLILDAFRTGDEHTFARLFDPHVRIEIGDKEFVGREFVLHHAHQLRIKRSHFNVEHFEWQGNKIRMHGILHFHGRFDGQERESYVDIHIVIEKVDGRWLVKSLHIH | 1.63
SELEEEAKELIEEWLHSFSTGDEKKLYELADPDDRLLFNGVEFVGREEMLKNFRDLYRKWGVTRVEADVKRIHVFNGVAHSDTVSHYNGVRVKTHLVIEKINGRWRVSSLHIH | 1.42
SELEEEALHLMELYLKSVMTGDEESIRRLADPNVRFEVDINGKKLELHGWKEETKFWREIWVRELRVRDKDAIGNKVHSVVEINVDVNGKEIRRESEEHYIIVDGRLHIISFRVN | 1.27
SELEEEARKMNERFWRDMITGDFDSLVRLADPHVKVLYGDKFSIGREVFEEHLRHLGIKVSHLRNLDVQGDKVIVHGESKFNGKTFELEIIMRKFDGRWFIETVNLQ | 0.973
SELEEEMEKWARDFLRLWFTGDEETTERLFDPHARMDVNGVQNHGWEMMSRQLTHYINHIRIRDLEVETISQQGDKIYVHGQENVEIGDKHLRYHTHIELVIVNGRVQEVRIEVK | 0.993
SELEEENRQALKESLREWETGDEKRLHENADPNARLQYGDKHYHGRENVSHMLTHIIEKFGIDHMRVRDFRVQGEKVETHVELRVGDKHLHIRIITMKVNGKWLFHSVHMHIE | 0.997
SELEEESHKFFREFYRVIETGDEDRLEELADPHVRNDFNGVLIHGREEMRKMREKVHKQLGVTRVEVTVRDMKIQGDKAISHGVFHIGEKDFIVTLISEKINGRWILHSIEVR | 1.2
SELEEEVRRAVTFWLEALMTGDEESVSHMLDPNVRVDIDGRDLHGREKMIETMKHIRIKHIELTSIKVINGRAHIHTKVDGEFNGRRDTLDVEIIITKINGKWVVKEVNVK | 1.7
SELEEFARKLMHIYSFAFLTGDWRLHEHMLDPHVRQEQGDKELHGMEDLERLMKRIDHVKHVEMLIEHLEVQGDKVRAHGKWRLIGTVNGQDVDVTIRAHFNIEKFDGVWVVREVRLL | 2.58
SELEEHATKMLQMVLEWWFTGDEEIFKHLADPHVRVESLINGVEIRRVGMEKLHEWLKHVLIHLRFEDMKVKHLEIINGVARQDTRTHMDVNGKHVDLETHVVVVNVNGRLKSIKIEIR | 0.971
SELEEIAEEVARRFSHFIETGDEEKLWKYFDPHVKIDIDIDGRTKELHGMERFVFFIRYLGLDRVELRDHRIEIQGEKAILDGTTHINGRTRKTNFHIFVFNGRIKFMQVHII | 1.48
SELEEILKIARRFFEIVMRTGDPRDIERLLDPNAKLIIDGQEIHGREKMSNTFEEMVRRYDVVKSIEDKDWKIVNGRVDLDITLNGRVDGKDISTRVIIHVEKINGRWFMREVNIE | 2.14
SELEEITEKAIRMDLQHEETGDWKKYSDMIDPHARFIVNGVEFVGRHFLLKWFLDVAKRVDHSRMHVDHEEHVDGRIHVDFRFELIFDGREYRIRSHIVADKIDGQWYFRQIRFQ | 1.29
SELEEITRRVWERLVRDLRTGDEKSLQEMLDPNVRSDFNGVELIGRELATKLIAELRIHDVKVEDVKFQGDKMTLDTKIDGEVNGKRHEFKHTLIFVKVDGQWMIETEEFH | 1.26
SELEEKAREMLTLLHKFWRTGNEEFFTKLFDPDMKLTVGDKEYIGMEDVTEYFVKWTREARLTDQETTDIEYYDGRLRIHVEMDVKQGDKRRKLESIIILLKVDGRWFATKVEIR | 0.928
SELEEKTEKWARLFWLLYKTGDWETLEKLLDPHVRSEINGKEEHGRENMIRMLVDLLRLLGIDHIELHHIEFVNGKVIIHLSLHAENHSSELIIEVNIINGKIESIRIEVR | 1.09
SELEELMHKFAKLFIHLWETGNEELLTKMADPNTRLIINGREVIGMERLLEVFHYIKTEIRLDTMRLEHIDWQGNKAHSHTRLHGEFNGRRHEDESEIHIRVIDGRVHTFEIRFK | 1.2
SELEELMKRLVKDWLHNWITGNEDRIWELADPDALVHFDGVISHGREEVIKLIRRFTEELRIHRIQIDHIKIQGDKIHIHLTEDGTIGDKRKEINVEIILFIINGKFKSSEIRIR | 1.49
SELEELSKEALERHNKDLRTGDWEELWRLLDPNVKLIVNGRHVHGREDATKFLLDWVRQVDHIRSIHIEDYKFQGNKLILHVRYQMDVDGKRDSREMTIYASKVDGRWIVESIEFR | 1.64
SELEELSKHHLELLTHSHRTGDEKSFVELLDPHARIHQGDFHFHGRKLIDEFFRQARIHHIHVDDSELQGNWVFVHGRVEGNFNGVRSKITTHIIELKVNGRWLLHNVHIA | 0.779
SELEELTEEAVKHILHIWETGDEEMSHDLVDPHVRVHVNGQKYHGRENAVEHISKLKGAKWHLRRFEVIDGKIHVDGQFHFNGRHHEVRVVIRKINGRWLIHEIQID | 1.77
SELEELVKRILKFILHSWDTGDEEFDKHMADPNVRVIYNGVDLHGMHTKDDLIKRLGWEQESRIRSIRAIGEKAHMDVELVWRFDGQQRDHDTRVHLDIVNGRSKNMEIRFK | 0.165

Sequence | protease stability score
SELEELWKRLLEEFVRLLHTGNEERILDLMDPHARVHTTFENHEFHDHGREAFHIMWEEFGINHLEFHRVRLFNGQVDITGSVNVNGREMETRIHLYIINGRVHQTIFRFR | 0.996
SELEELWRKMVEFQERSNTTGDEKSFLEMLDPDMRIIIGDFEFHGRENAKDYLRRVDHIHHVEYRRVDLQGDKAHIEMHINGHWDGRTHRTDTHLHLRKFNGRWHVEDVQVD | 1.41
SELEEQERTHIHKLMNAIETGDEDLFRRLFDPNVRVDVDGVEFIGREHLLILLRHMRMHARHFKEEDFSVQGDKVHLYGHLDEEIEINGKVTRRHIHVTWVLVKVNGKWVIHSQYVL | 1.41
SELEEQVKYALELFIRTFETGDEDLSSQLLDPNTRLEINGREIHGRELVSKFWLKFATEMRLRRTHTRSIRNVDGKAINHTTIDVEIGDKRTTIDVELIAYKFDGRWVNEKIQFH | 0.828
SELEERAEKMTKEFERAFVTGNWEEQVKLLDPNVRIDINGVIFVGREQYERLVREIWMHVEDFRVTSLELQGEKARTHVESDVIIRVNGRDIRKKTEEEIVVSKINGVWSVERIHVR | 1.24
SELEESLEKFLRALRHLTETGDEDTWKRLLDPTTRLEINGKEIHGREDVSRHWKELRFRSEDPKDYKIVDGVLRLDTRVDGVFNGQHREVDVEVIVFKVDGRWEIKRIRYH | 1.56
SELEESVRWAAEVFVKYTLTGNEHLLSRYFDPNVRVHFDGVDLHGREELSKLFLHIRFRRIHLRSEKEFEGHAELDQEHDGHYNGVRHNRTLRLHMIKINGQWITEVFILH | 1.34
SELEETLKRSYELLSRILETGDEHRLKSLADPHTRMDFNGVEVHGMHLTVQWMKEFGADHEQYEVRIKRLDVQGDKLHSHGLLIIRIFINGRTIDLKIETHMHAEKIDGRWVIREIIWR | 1.36
SELEEWLFHFVKRFIRAELTGDEEEMLHLLDPNARMIIGDKHIHGRENIMELVRHFWHEIRIDHIEIKHVDFQGDKVIIHGQSDGQINGQRTTVDVRIQLIIINGRLKLLEFDNR | 1.71
SELEEWTERMAKQMLDDVETGDEDRLLKLADPHVRVEFIVDGKIEEVHGREELRKLMERLGIKHFEIKRVSIRVIDGRIHVHNDGHMIIDGKTIPVQLHIHAEKVNGRWRVTDLSIRVG | 1.51
SELEEYLTYLSKLFVHALITGNEDKYTEEFDPRTRFEMLINGRRIEYHGRESVREFLRHFLEEWRIHHIDTTEIEFIGDKARIHGEQEVHFNGRNITTKVRIDILFYNGKMRDIRIEIE | 2.15
SELEHDARNAEHWFEETFRTGDEEDRERLLDPHVLVEFNGREYIGWHVFQKFFNDLGVDHMEVRIHDSKVFNGRVHLDGELTIRQGDKLIRSHVHLILTKVDGRWRMREIRIH | 1.73
SELEHEMVEFFRLLVHAWRTGNEELAHRLIDPNVRLDVNGRHFHGWEEFFRFYKEIRLKDADLDSFRIIDGRVELDGTMHMEQGDKSRSVESHVLLEKIDGRWIVRSVRFH | 1.44
SELEHLMEEAWRLLLEAIRTGDEKLTNKLLDPNVRIEVGEFHYHGRELMLTWFKYELKHLRFKDSRIDHFDVVDGVAKMRTTDTNLVNGRDVTLDVIYVILKVNGRWVFHSMEIR | 0.861
SELEHLTEEVAERVLRVLLTGNEHWLDRLLDPHVRLHVNGQDFHGRENVKRWMHELGVDHREIEIEDYRSINGVFIVWGHIRIHQGEKEIKFKSEHIFVVFNGKMQSMEIRIL | 1.58
SELEHMLREVLHLLYESLETGDEELLETLVDPRMRLYINGQLIHGMDLAVEIELRRSREMRFRDWKIHSIHVQGNKAFMDVRHVGQINGVHISLEHEILIHKINGRWTIEERITK | 0.43
SELEHQVRKFVEIYVEAMRTGDEDVLRELADPHVRVVIGDKELHGWEEVVHKLRELRLEEIRVDRVRVIGDYVYVDGHSVWTYGDKRIEQRDIFTIRKVNGRWVLHDVILR | 1.99
SELEHVEEKLLRDLVNAIKTGDEEFFNRLLDPDDRLHEKQGDKTIDFIGREEWKRFLSQIKNLKVEFRDVDLWNGRIHMRVVIIINGREHDLELEYVIVNGRFKQFHVRIR | 2.2
SELEHWAERLTRILIHSLYTGDEESLLKLADPRVRNDVNGVHVVGMEWFLKVWNKYRDELRIHHIEVRDIKIINGVAHSTVREDGEINGKKLDVETHVELDTVNGRLRIVHIRIV | 1.58
SELEKDQEDFVRIVEEMMNTGDEHVFKNLADPHVRNDVNGKDVHGRELVTKIWHFLLRHLGINHIELKHVEIYGNKVIIHMEERVGDKRVELVIVAEKVNGKWYLSEIRFEHK | 1.28
SELEKELREFIKKVVEALATGDEDLLRELFDPHVRVKIGEWHFIGMEEMLRLIREIRMEIEEVRITELQIQGDKIHMETRLHGRLHIGDKERQTHYSTRVNVRKIDGQWITKSWEVH | 2.04
SELEKFHEESLKSVLESWITGDEHLNRDLVDPDAKLNVNGREHHGWELITILLSQMRVHDFKRRDIRFQGDKIFIDGEIDGEINGQRIRLRIDIIAVKVNGKWLIKEVRVH | 1.69
SELEKFIRKYSDDWRELHRTGDFEIFQELADPHMIFHSIVGDKRTEIHGRESYIEWLREELEHWRIHHIQLRRSTAIGDFAVVDGELDGEFNGQRERRKVKVDLFVVNGQTKHIEFRIH | 1.19
SELEKHIKDYFDYIFTLLLTGDWDTLWRMADPNVRFHAEGHEIHGRELWEEFIRKFKNIKVHLHRSSLIGDYLFLDGELEINGRRIRTEIELVIVNGRLTEVSHRLR | 0.807
SELEKHLEDVASMWLKVIQTGDWDKLFELADPNVRFEQIYGDKKVELHGREEMIEWLRKFMEQMRTEHRIHSMEVQGDKVHLDTRVILDFNGVRIHLETRVIIIVVNGRLHSYSEHVK | 1.31
